Publication PMC10848371
Where two headings read alike, the source gives them in different places.

PD-1 (programmed cell death protein 1): 3NQ (N49Q, N58Q, N74Q)
decreases: localisation_or_trafficking (N-glycosylation at N49) | stability_or_folding (N-glycosylation at N49) | localisation_or_trafficking (N-glycosylation at N58) | stability_or_folding (N-glycosylation at N58) | localisation_or_trafficking (N-glycosylation at N74) | stability_or_folding (N-glycosylation at N74)
